Experimental data reported in the DeepSol protein solubility set.

Experiment: soluble on expression in E. coli; label from the status in PepcDB or PDB records
With “MDTPSLTPWLSIVGISEEGWLALTPIAQQCILQADILVGSDRHFDLLPSLPGAEQWRWGSPFSATITQILERRGQSICILASGDPMCYGVGSLLAQRLPLTELQILPAPSAFSLACSRLGWALPEVETLSLCGRDPALLNALLYPGAKILALSADRSTPATIAEQLCQQGWGSSRLTVLEHLGGPKERKISEIAEHWSQPTIASLNTVAIECHARDRDLIVPPRLTGLPDAAYHHDGQLTKREVRAITLAALAPLPGQLLWDVGAGCGSIGIEWMRSDRRCRAIAIEQHPQRLQIITQNAIALGVPNLQVVAGSAPATLSGLPQPDAIFIGGGVTAPGVLDQCWQALPMGGRLVVNAVTLESEQVVLAGQQRWGGDLIRVAVQRAEPIGRFLGWKSLAPITQWTVKKTALEHHHHHH” the “soluble on expression in E. coli” value was “not soluble”. For “MLGRGEGMRLEEARIAVDEALSAYRRCVEAEVEEYGPEYERVTFMEYEAPAPDPCAEAFLRLVEAVRAYEAAGGSREDLDLGRERKRVYEALDKG”, the “soluble on expression in E. coli” value was “soluble”. For “MGSDKIHHHHHHMESFYRTHAYLVEHTNAPVRRDLMDEIDWSDRLIGIKGTRGVGKTTFLLQYAKEKFGTDRSCLFINMNNFYFSGHSLVDFANEFQKRGGKVLLIDQVFKHPEWSKELRMCYDRFPSLKIVFTGSSVMRLKEENLELRDIAKSYNLRGFSFREFLNLQTGMKFRAYSLEEILSTHEQIAKGVLSKVRPLDYFQDYLHHGFYPFFLEKRNFSENLLKTMNMMVEVDILLIKQIELKYLSKIKKLLYLLAVDGPKAPNVSQLASDVQTSRATVMNYIKYLADARLINLVYPKGEEFPKKPSKIMMHNSNLMYSIYPVKVEEQDVLDTFFVNTLWKDHKVHKGDKNVSFMVDEVMPFKICAEGTKIKNNPDVTYALQKAEIGRGNQIPLWMFGFLY”, the “soluble on expression in E. coli” value was “not soluble”. For “MSLTDKPQAEVIAVYPNKVKICVDDLGSFTEGHPLLRVGSYLRVTDHEDCILIAIIESFLIEVDDRKNRRHVIEALPLGVIKDDKFIRGGDALTIPPTGVAPATIQDIKKIFEDSVPTNRKFEFSSLVTDPDIRVPVDGNRFFNKHIAVVGSTGAGKSNTVTRIIQTSTTKTPSGTQNNSHAIIFDIHSEYKAAFPHANHIDINSLNLPYWLLNSDELEEVLLDTGERDNYNQSSVFRYLVTENKKKHNEGHHHHHH”, the “soluble on expression in E. coli” value was “not soluble”. With “MARYYVLDLSEDFRRELRETLAEMVNPVEVHVFLSKSGCETCEDTLRLMKLFEEESPTRNGGKLLKLNVYYRESDSDKFSEFKVERVPTVAFLGGEVRWTGIPAGEEIRALVEVIMRLSEDESGLEDATKEALKSLKGRVHIETIITPSCPYCPYAVLLAHMFAYEAWKQGNPVILSEAVEAYENPDIADKYGVMSVPSIAINGYLVFVGVPYEEDFLDYVKSAAEGRLTVKGPIRAGEAEEL” the “soluble on expression in E. coli” value was “soluble”. For “MKPANLIHPSVIMSKKYNKMGEGCIICASNIITVNVTLGDHIIVNLDCTIGHDVVINDYVTIYPSVNVSGNCNIGECVELGTGTQVIQGNNIGDRTIVGAGSVVIRNIEGDKVAVGVPTKVIKLEHHHHHH”, the “soluble on expression in E. coli” value was “not soluble”. With “MAHHHHHHMAASSPLGMANYVTGDPLGVAGQEAGKGAGALLAAVQQCSAELSHEFGDGVALMTGEPAAATTSSHASPLSPEQRVALSAGAVTCLSVASLPGTTDTAVAVVGTTVGTVALLLIEGSRAVYKVAECSLMEWSSGAITAQDAIVDVAFSMDPAGRPEFVGAASAGCVVVVDVQLLYRPSGNSSRSTDEEVGDTATDAPAAVVHRAEWHQATELWSNSALRAKAVEALERSSAQLVRHCCSDVFACSFVEADVVRILAPQRLQAAVAIDVALVVVLSSGALHYVERVVEGGSVRLLAEHHWQRLAKGAAFTSHASAATQGADSAAENDFSADGTSVHLVTDSRAVPHVIYRYRLSPYHVQACQDGGQTASGGGGNYSMAALALPCATESVTHVCDAHLHFSEKDAACHVVLAGTQRVPVGKVGYMSVASRVGSLGHAQQQQHAGVAGCRTLAWWAVVQNAVLPRQTFDRSALERQALQHQHQQQQQQLHDGHAFPPFRTNAGSPPFTVHVQSNTMALPCGLGTCPASALTSPATSSPATAGAGVASGVSAVGPGQGSGFAAAFMLTDILVLASGHELYVGDLRDVPRSAKTLPVPRPLRSFGSVVEGITAGPYMDARAVLVATGSRVAPVSLV” the “soluble on expression in E. coli” value was “not soluble”. In the case of “MVLPKDVKWDLIRQFQRHEQDTGSPEVQIAILTERINRLTEHMKKHKKDIHSRRGLIAMVNKRRKLLEYLRETDYAKYLEVVQKLNLKVK”, the “soluble on expression in E. coli” value was “soluble”. For “MDPTQHRKAARPCDARRVLVLQGGGALGAYQAGAYQALCHHDFEPQWLAGISIGAINAAIIAGNPREQRVEKLKQFWEMASSPVPWQPLLRDDHVHSLFNETSAAMIATFGVPGFFTPRFPPTHLLPSGKPSNLSYYDTAPLRSTLERLVDFDRLNHNGIRLSVGAVNIATGNFVYFDTTKQIIGPEHIMASAALPPGFPAIEIDGEHYWDGGVASNTPLDYVL”, the “soluble on expression in E. coli” value was “not soluble”. With “MNLNPAHINEPVQKEFLSVIKEYERVIYKVCYLYTTRNATLGDLYQEVILNLWKAYPKFRKECKISTWIYRIALNTCISFIRKEKNVPEIVALTREADWMTEEKDELTEMLRQLYRMINQLGQLDKSIVLLYLEEKSYEEIAEITGLTVTNVATKLSRIKDKLKKMKKEE” the “soluble on expression in E. coli” value was “not soluble”. In the case of “MSKRKVAIIGSGNIGTDLMIKILRHGQHLEMAVMVGIDPQSDGLARARRMGVATTHEGVIGLMNMPEFADIDIVFDATSAGAHVKNDAALREAKPDIRLIDLTPAAIGPYCVPVVNLEANVDQLNVNMVTCGGQATIPMVAAVSRVARVHYAEIIASIASKSAGPGTRANIDEFTETTSRAIEVVGGAAKGKAIIVLNPAEPPLMMRDTVYVLSDEASQDDIEASINEMAEAVQAYVPGYRLKQRVQFEVIPQDKPVNLPGVGQFSGLKTAVWLEVEGAAHYLPAYAGNLDIMTSSALATAEKMAQSLARKAGEAA”, the “soluble on expression in E. coli” value was “soluble”. With “MMINQKNDIPLCAQEFSKLTDPLYIKKICLEKVHDWSRCNEDDVCVNQILSGLTNQLFEVSIKEDTAIEYRITRRHVLFRIYGKDVDALYNPLSEFEVYKTMSKYRIAPLLLNTFDGGRIEEWLYGDPLSIDDLKNKSILVGIANVLGKFHTLSRKRHLPEHWDKTPCVFKMMDRWRLAVSNYKNLDKVTLDINKYIQESHKFLKFIKIYTQIENIANDIVFCHNDLQENNIMNTNKCLRLIDFEYSGYNFLSADIANFFIETTIDYSYNAYPFFIINKKNYISYESRILFVTTYLSKYLDDSTAASDQDIIDQFLEAIEVQALGLHLIWAFWSIIRGYQTKSYNEFDFFLYAKERLKMYDEQKQYLMSKNIIKD” the “soluble on expression in E. coli” value was “not soluble”. For “MAEREQSNDSARTDVPAIVSLRTRELDTGEGRMQWASTLERLYCETDVAWPEPRRHFDAEWGGRPFGDLHVSTIRADAHTVVRSPAMIQSDSGEGYLVCLVTDGSVEVRQSGRATVVEPGSFALLDCAAPFVFHSPAPFRQVVVRSPREVLTSRLPGRIVEHGTARSIHGDTGAGGLVGRLFVDIADMDAPMSQGAAVSFASSAVDMLATALTEGLLATSAADLHRTEDLRRVQRVIEQNLHDADITLSDIAAAAGMSLRTVHKLFNAEGTTTRAWLYQARLEAARKYLLTTDLSVADVSECAGFRDVSHFSRLFRSTFGSSPGLYRKEHARRVS”, the “soluble on expression in E. coli” value was “not soluble”. For “MGSDKIHHHHHHVGAGGRDVVWTPRSLYLTDFIHANLLEKLKMQTLIIYSTIDGQTLAICQKIKLFAEQAGENVSLVTLEQAEALSLADFDKVLIGASIRYGKYRPELYQFVNRHHAVLDTKINGFFSVNVVARKPLKNTPETNPYMQKFLKLSLWQPQHLAVFAGKIDYPKYSFFDRTMIRFIMWMTKGPTDINGTFEFTDWAKVDAFGTDFSHQ”, the “soluble on expression in E. coli” value was “not soluble”. For “MSLDSFLDIQRKKADADSKFIDCNGFRVHYKRYGSGKPPFIVLLHGSFLSIRSWRDVAVPLAENATVLAFDRPAFGLTSRPVPSRSNAARYSPEAQSDLVVALMDKLGMDRAVIVGNSTGGTLALLTALRHPRRVQGLVLVGAMIYSGYANSEVPAVMKPFMKAMSPVFSRLMKVIITKLYDKNIRGFWHVKSRLSDETLAAFRNDFMVGDWSRGFWELFLETHRLYFNRRVSSAWAPSLVVTGEHDLTVKTEESFRLARELPRAELLVIPDCAHLPQEEQPAAFVAGVKKFVEKLVEGHHHHHH”, the “soluble on expression in E. coli” value was “soluble”. In the case of “MFFQSIYQMMSAGTDLNINIRRTDGKLSVAVIPKRTTLKDEAGQAIVPLILNGTPMELDGQFLQIITTPLQKAQGILTNLETFEQQARLAATQGKAAGTANDKKTKEAREKQEKMEKLLKRAEEAFTAGRYSEATTCFRQAKVLADTDRQKQIEARIQEVQKESSQGCLFPETDTQPLPQQPPANGTANGNRPDGQMRMFTSQPPQQPVQQAIPQPVQQPVPRPQIVQPQPVPQYYPGTPQPQPMYEGYCRNPANGSPQQTAEQPQTYFLQPGGQYPQTQPWQQPQPVPLQPQATVIQTTRENTGREYQSPPQPAAEALTFDKDDESDRELLREDPYAEYIDFPQECRMKDETQAELICC”, the “soluble on expression in E. coli” value was “not soluble”. For “MGSDKIHHHHHHMNKQPLAFRMRPKKIEDVVGQQHLIGKGKIIWRMVQAHRLSSMILYGEPGTGKTSIASAIAGSTELSFRILNAATDGKKELQEVAEEGKMSGSVILLLDEIHRLDKTKQDFLLPHLESGRIVLIGATTENPYLSVTPAIRSRTQIFHVEALSEKDIKTAINRALSDKENGLGNYNIKLDDRAKNHLSTATNGDLRSALNGLELAVLSTKAVGKEKEIHITLPIIEETIQRKSMSGDKNGDAHYDVISAFQKSIRGSDADAGIYYLGRILEAGDLTIAARRLLVIAYEDVGLANPNAAAHAVQAVTAALQLGLPEARIPLANAVIELALSPKSNSAYGAINSAIGDIEKGNTGDVPIHLKNTRNWGKTKNQ”, the “soluble on expression in E. coli” value was “not soluble”. In the case of “MGKKKVKFLQKEELRTLLQSLDLQSGINNDWFLLLIAKTGMRYAEALALTPSDFDWVNATVTIDKSWDYKTHRGFKKTKSTASDREIAIDWQIVGQFKPLIQDLPANDPIFIEKTERGTYKKQYNSTMNNYLEAKCKTLTITVISLHALRHTHASVLLAEGVSIHTISARLGHADVGVTQEIYAHVLDELQKKDDQKMMSVLMQIALEHHHHHH”, the “soluble on expression in E. coli” value was “not soluble”. With “MKMKTDDTFNHAHADRLLLPNASLLGEVENMLADGRSVMLKATGNSMLPFIVGGRDSVLVRRPSGIQALQVWQIALAHLPDSRYVLHRIVRIHGAEIVLMGDGNLKETESCRFPDITGVVTRIIRNGRYVDCDAGGERCKAKIWGRLLPIRRYLLYIYRRVWI” the “soluble on expression in E. coli” value was “not soluble”. With “MNRQIVRSALFVPATRPERIPKALASGADRVIVDLEDAVEEGLKVEARANLRRFLVDTPEARVLVRINAAEHPGHADDLALCRDHAGVIGLLLPKVESAAQVRHAAVASGKPVWPIVESARGLAALGEIAAAAGVERLSFGSLDLALDLDLNSGSNAAEQILGHARYALLLQTRLAGLAPPLDGVYPAIQNRAGLVEAVRFARDMGFGGLLCIHPSQVEPIHQTLMPSPAELEWARRVAEAGASGAGVFVVDGEMVDAPVLGRARRLLERAGEGG” the “soluble on expression in E. coli” value was “not soluble”. With “MGSDKIHHHHHHMKAVVIVKRAGQERPDLEYQTVPDPKPEPNELLVSVRAAGINRIDLHRSTAHGAPAAGKPLVAGLEMSGEVVAVGENVHDFRTGDKVYGMTTGSYAELATIDHRYALPVPPAFSFDQATAVATVYPTAHNALVTNGQFAAGKTVLIQGVSSAVGIATLQIAKAMGAKCVVGTGRPNANIGKLAEAGLDRFLLNGTDNIPAEIMAMTDGRGVDTIVDMVGGPTIADNLESVALAGRIVSVGWVGGTKGEIDLDTLARKRVTLVGVSFRTRTVEEKTELFAQFRRDVYPLFVNGTLVPYIAATYHLSEAAAAQDAMAEDKHFGKILLHP” the “soluble on expression in E. coli” value was “not soluble”.
